Results as given in publication PMC5849677, “A novel C3d-containing oligomeric vaccine provides insight into the viability of testing human C3d-based vaccines in mice” (Immunobiology, 2018).

What was measured:
hC3dg (aa 955-1303)-Fc = target: T1, hC3dg (aa 955-1303)-Fc (human, UniProt P01024 955-1303); experiment: SPR; Biacore; hC3d or C3d(g)-Fc fusions immobilised by amine coupling (94.3-96.2 RU); Fc-fusion analytes 0.195-50 nM in HBS-EP+, physiological salt, 360 s injection; steady state affinity model; apparent KD; details: both partners purified
T1 construct: human complement C3, C3dg fragment, aa 955-1303 (of pre-pro C3); also called hC3dg-Fc; hC3d with the g fragment attached
T1 sequence (P01024 955-1303): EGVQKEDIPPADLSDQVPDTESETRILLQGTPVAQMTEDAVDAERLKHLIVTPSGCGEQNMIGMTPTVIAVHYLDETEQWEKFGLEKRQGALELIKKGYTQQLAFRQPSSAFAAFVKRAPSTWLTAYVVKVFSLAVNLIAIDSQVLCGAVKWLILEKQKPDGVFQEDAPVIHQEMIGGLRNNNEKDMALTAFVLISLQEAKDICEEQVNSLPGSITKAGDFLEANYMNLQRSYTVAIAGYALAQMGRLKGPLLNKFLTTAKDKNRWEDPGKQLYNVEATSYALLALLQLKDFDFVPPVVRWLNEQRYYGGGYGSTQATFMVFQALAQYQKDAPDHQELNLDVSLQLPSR

mC3d-Fc = target: T2, mC3d-Fc (mouse, UniProt P01027 1002-1303); experiment: as above; details: both partners purified
T2 construct: mouse complement C3, C3d fragment
T2 sequence (P01027 1002-1303): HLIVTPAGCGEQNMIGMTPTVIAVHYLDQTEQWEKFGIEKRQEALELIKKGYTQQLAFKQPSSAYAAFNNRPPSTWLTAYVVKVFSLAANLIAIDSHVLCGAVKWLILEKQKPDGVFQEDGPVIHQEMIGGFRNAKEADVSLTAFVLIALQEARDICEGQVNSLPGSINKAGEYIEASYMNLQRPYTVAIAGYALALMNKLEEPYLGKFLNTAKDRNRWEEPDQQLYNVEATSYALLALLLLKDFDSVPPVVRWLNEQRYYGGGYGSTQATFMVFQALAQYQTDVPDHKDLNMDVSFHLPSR

B1: hCR2 (SCR1-4)-Fc (Fc fusion)
chain: ISCGSPPPILNGRISYYSTPIAVGTVIRYSCSGTFRLIGEKSLLCITKDKVDGTWDKPAPKCEYFNKYSSCPEPIVPGGYKIRGSTPYRHGDSVTFACKTNFSMNGNKSVWCQANNMWGPTRLPTCVSVFPLECPALPMIHNGHHTSENVGSIAPGLSVTYSCESGYLLVGEKIINCLSSGKWSAVPPTCEEARCKSLGRFPNGKVKEPPILRVGVTANFFCDEGYRLQGPPSSRCVIAGQGVAWTKMPVCEE
notes: human complement receptor 2, short consensus repeats 1-4; also called hCR2-Fc; soluble hCR2; source: CHO cells, transfected, purified from tissue culture supernatant
How did the Kd (hC3dg (aa 955-1303)-Fc) turn out when B1 was run?
The Kd was 3.1 to 5.1 nM.

And the Kd (mC3d-Fc)?
The Kd was 1.47 ± 0.47 nM.

And the “fold higher affinity than for hC3d-Fc” value (mC3d-Fc)?
The value was 4 fold.
